For 1 substance, stoichiometry N results are on record in paper doi:10.1101/2025.03.26.645568.

The target in the assay is Mam1A_(107-213) (Mycobacterium tuberculosis H37Rv). The assay is described as follows: SEC-MALS.

Mam1A_(107-213) (domain or fragment): the stoichiometry N came out at 4.
